The record followed here is patent publication US20190381086A1, “INHIBITION OF NEDDYLATION USING GLYCYL-tRNA SYNTHETASE INHIBITORS” (The Scripps Research Institute, priority 2015, published 2019).

The target in experiment [1] is Ubc12^N8: NEDD8-conjugated Ubc12 (C111S, stable ester linkage to His-SUMO-tagged NEDD8) (UniProt P61081). Description: biolayer interferometry, Ubc12^N8 immobilized. For orientation: BLI is a label-free optical method that tracks binding on a fibre tip over time.
The target is the same in experiment [2]. Description: biolayer interferometry (Octet), 30 °C, Ubc12^N8 (100 nM) immobilized on sensor tips, GlyRS 0.25 µM; in the presence of 0.5 mM of the small molecule GlySA.
Experiment [3] has the same target. The experiment in a line: biolayer interferometry, Ubc12^N8 immobilized, full-length GlyRS 8.07-129 nM.
The target is the same in experiment [4]. Description: biolayer interferometry (Octet), 30 °C, Ubc12^N8 (100 nM) immobilized on sensor tips, GlyRS 0.25 µM; in the presence of 1.0 mM of the small molecule GlySA.
Experiment [5] shares this target. Description: biolayer interferometry (Octet), 30 °C, Ubc12^N8 (100 nM) immobilized on sensor tips, GlyRS 0.25 µM; curve 'Blank' (no GlySA).

B1: ΔF84-L93 GlyRS (F84-L93 replaced by GGG) (enzyme)
chain: MDGAGAEEVLAPLRLAVRQQGDLVRKLKEDKAPQVDVDKAVAELKARKRVLEAKELALQPKDDIVDRAKMEDTLKRRFFYDQAGGGYDFGPVGCALKNNIIQTWRQHFIQEEQILEIDCTMLTPEPVLKTSGHVDKFADFMVKDVKNGECFRADHLLKAHLQKLMSDKKCSVEKKSEMESVLAQLDNYGQQELADLFVNYNVKSPITGNDLSPPVSFNLMFKTFIGPGGNMPGYLRPETAQGIFLNFKRLLEFNQGKLPFAAAQIGNSFRNEISPRSGLIRVREFTMAEIEHFVDPSEKDHPKFQNVADLHLYLYSAKAQVSGQSARKMRLGDAVEQGVINNTVLGYFIGRIYLYLTKVGISPDKLRFRQHMENEMAHYACDCWDAESKTSYGWIEIVGCADRSCYDLSCHARATKVPLVAEKPLKEPKTVNVVQFEPSKGAIGKAYKKDAKLVMEYLAICDECYITEMEMLLNEKGEFTIETEGKTFQLTKDMINVKRFQKTLYVEEVVPNVIEPSFGLGRIMYTVFEHTFHVREGDEQRTFFSFPAVVAPFKCSVLPLSQNQEFMPFVKELSEALTRHGVSHKVDDSSGSIGRRYARTDEIGVAFGVTIDFDTVNKTPHTATLRDRDSMRQIRAEISELPSIVQDLANGNITWADVEARYPLFEGQETGKKETIEE
As usually defined, the Kd is the equilibrium constant for the complex coming apart. For B1, in experiment [1], the Kd amounted to 27 nM and the fold decrease of binding against wild type GlyRS came out at 9 fold.

B2: full-length human GlyRS (enzyme)
chain: MDGAGAEEVLAPLRLAVRQQGDLVRKLKEDKAPQVDVDKAVAELKARKRVLEAKELALQPKDDIVDRAKMEDTLKRRFFYDQAFAIYGGVSGLYDFGPVGCALKNNIIQTWRQHFIQEEQILEIDCTMLTPEPVLKTSGHVDKFADFMVKDVKNGECFRADHLLKAHLQKLMSDKKCSVEKKSEMESVLAQLDNYGQQELADLFVNYNVKSPITGNDLSPPVSFNLMFKTFIGPGGNMPGYLRPETAQGIFLNFKRLLEFNQGKLPFAAAQIGNSFRNEISPRSGLIRVREFTMAEIEHFVDPSEKDHPKFQNVADLHLYLYSAKAQVSGQSARKMRLGDAVEQGVINNTVLGYFIGRIYLYLTKVGISPDKLRFRQHMENEMAHYACDCWDAESKTSYGWIEIVGCADRSCYDLSCHARATKVPLVAEKPLKEPKTVNVVQFEPSKGAIGKAYKKDAKLVMEYLAICDECYITEMEMLLNEKGEFTIETEGKTFQLTKDMINVKRFQKTLYVEEVVPNVIEPSFGLGRIMYTVFEHTFHVREGDEQRTFFSFPAVVAPFKCSVLPLSQNQEFMPFVKELSEALTRHGVSHKVDDSSGSIGRRYARTDEIGVAFGVTIDFDTVNKTPHTATLRDRDSMRQIRAEISELPSIVQDLANGNITWADVEARYPLFEGQETGKKETIEE
As for B2, the Kd in experiment [2] was 7.88 nM; in experiment [3], 3.21 nM; in experiment [4], 22.4 nM; in experiment [5] it was 2.12 nM.

B3: ΔInsertion 1 GlyRS (F147-F224 replaced by GSGSGG) (enzyme)
chain: MDGAGAEEVLAPLRLAVRQQGDLVRKLKEDKAPQVDVDKAVAELKARKRVLEAKELALQPKDDIVDRAKMEDTLKRRFFYDQAFAIYGGVSGLYDFGPVGCALKNNIIQTWRQHFIQEEQILEIDCTMLTPEPVLKTSGHVDKFADGSGSGGNLMFKTFIGPGGNMPGYLRPETAQGIFLNFKRLLEFNQGKLPFAAAQIGNSFRNEISPRSGLIRVREFTMAEIEHFVDPSEKDHPKFQNVADLHLYLYSAKAQVSGQSARKMRLGDAVEQGVINNTVLGYFIGRIYLYLTKVGISPDKLRFRQHMENEMAHYACDCWDAESKTSYGWIEIVGCADRSCYDLSCHARATKVPLVAEKPLKEPKTVNVVQFEPSKGAIGKAYKKDAKLVMEYLAICDECYITEMEMLLNEKGEFTIETEGKTFQLTKDMINVKRFQKTLYVEEVVPNVIEPSFGLGRIMYTVFEHTFHVREGDEQRTFFSFPAVVAPFKCSVLPLSQNQEFMPFVKELSEALTRHGVSHKVDDSSGSIGRRYARTDEIGVAFGVTIDFDTVNKTPHTATLRDRDSMRQIRAEISELPSIVQDLANGNITWADVEARYPLFEGQETGKKETIEE
In experiment [1], B3 showed a Kd of 4.32 nM.
